B1: ZBED2 (parent)
chain: RAGHHPNQYATCRLCGRQVSRGPG

Variants of: B1
Test: protein stability index of a GFP-peptide fusion (GPS, HEK-293T) (PSI 1-6); higher = more stable
Conditions: c terminus: a fixed tail appended
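Also: lentivirally expressed fusions sorted by FACS into six bins by GFP to DsRed ratio, PSI derived from sequencing read proportions per bin multiplied by bin number.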

Variant | protein stability index
RAGHHPNQYATCRLCGRQVHRGPG [S20H] | 1.76
RAGHHPNQYATCRLCGRQVLRGPG [S20L] | 2.29
RAGHHPNQYATCRLCGRQVKRGPG [S20K] | 1.88
RAGHHPNQYATCRLCGRQVTRGPG [S20T] | 1.91
RAGHHPNQYATCRLCGRQVWRGPG [S20W] | 1.59
RAGHHPNQYATCRLCGRQVPRGPG [S20P] | 2.53
RAGHHPNQYATCRLCGRQVVRGPG [S20V] | 2.08
RAGHHPNQYATCRLCGRQVERGPG [S20E] | 2.88
RAGHHPNQYATCRLCGRQVQRGPG [S20Q] | 2.21
RAGHHPNQYATCRLCGRQVIRGPG [S20I] | 1.48
RAGHHPNQYATCRLCGRQVGRGPG [S20G] | 1.78
RAGHHPNQYATCRLCGRQVCRGPG [S20C] | 2.49
RAGHHPNQYATCRLCGRQVRRGPG [S20R] | 2.26
RAGHHPNQYATCRLCGRQVMRGPG [S20M] | 2.4
RAGHHPNQYATCRLCGRQVDRGPG [S20D] | 1.93
RAGHHPNQYATCRLCGRQVFRGPG [S20F] | 1.79
RAGHHPNQYATCRLCGRQVNRGPG [S20N] | 1.79
RAGHHPNQYATCRLCGRQVSRGPY [G24Y] | 1.57
RAGHHPNQYATCRLCGRQVSRGPC [G24C] | 1.53
RAGHHPNQYATCRLCGRQVSRGPA [G24A] | 1.24
RAGHHPNQYATCRLCGRQVSRGPV [G24V] | 1.61
RAGHHPNQYATCRLCGRQVSRGPK [G24K] | 2.03
RAGHHPNQYATCRLCGRQVSRGPE [G24E] | 2.35
RAGHHPNQYATCRLCGRQVSRGPL [G24L] | 2.07

Variant | protein stability index
RAGHHPNQYATCRLCGRQVSRGPW [G24W] | 1.97
RAGHHPNQYATCRLCGRQVSRGPH [G24H] | 2.15
RAGHHPNQYATCRLCGRQVSRGPP [G24P] | 1.71
RAGHHPNQYATCRLCGRQVSRGPI [G24I] | 2.11
RAGHHPNQYATCRLCGRQVSRGPN [G24N] | 2.42
RAGHHPNQYATCRLCGRQVSRGPM [G24M] | 2.17
RAGHHPNQYATCRLCGRQVSRGPS [G24S] | 1.56
RAGHHPNQYATCRLCGRQVSRGPR [G24R] | 1.8
RAGHHPNQYATCRLCGRQVSRGPT [G24T] | 2.17
RAGHHPNQYATCRLCGRQVSRGPF [G24F] | 1.17
RAGHHPNQYATCRLCGRQVSRGPD [G24D] | 1.7
RAGHHPNQYATCRLCGRQVSRAPG [G22A] | 2.21
RAGHHPNQYATCRLCGRQVSRKPG [G22K] | 2.68
RAGHHPNQYATCRLCGRQVSRLPG [G22L] | 2.48
RAGHHPNQYATCRLCGRQVSRTPG [G22T] | 2.24
RAGHHPNQYATCRLCGRQVSRHPG [G22H] | 2.12
RAGHHPNQYATCRLCGRQVSRNPG [G22N] | 2.29
RAGHHPNQYATCRLCGRQVSRRPG [G22R] | 1.95
RAGHHPNQYATCRLCGRQVSRIPG [G22I] | 1.9
RAGHHPNQYATCRLCGRQVSRVPG [G22V] | 1.77
RAGHHPNQYATCRLCGRQVSREPG [G22E] | 2.08
RAGHHPNQYATCRLCGRQVSRFPG [G22F] | 1.55
RAGHHPNQYATCRLCGRQVSRMPG [G22M] | 1.57
RAGHHPNQYATCRLCGRQVSRCPG [G22C] | 3.07

Variant | protein stability index
RAGHHPNQYATCRLCGRQVSRWPG [G22W] | 1.46
RAGHHPNQYATCRLCGRQVSRSPG [G22S] | 2.53
RAGHHPNQYATCRLCGRQVSRDPG [G22D] | 1.64
RAGHHPNQYATCRLCGRQVSRPPG [G22P] | 2.57
RAGHHPNQYATCRLCGRWVSRGPG [Q18W] | 1.27
RAGHHPNQYATCRLCGRYVSRGPG [Q18Y] | 2.51
RAGHHPNQYATCRLCGRQVSIGPG [R21I] | 2.35
RAGHHPNQYATCRLCGRQVSKGPG [R21K] | 1.69
RAGHHPNQYATCRLCGRQVSEGPG [R21E] | 2.45
RAGHHPNQYATCRLCGRQVSYGPG [R21Y] | 1.85
RAGHHPNQYATCRLCGRQVSSGPG [R21S] | 1.65
RAGHHPNQYATCRLCGRQVSMGPG [R21M] | 1.68
RAGHHPNQYATCRLCGRQVSTGPG [R21T] | 1.78
RAGHHPNQYATCRLCGRQVSCGPG [R21C] | 2.54
RAGHHPNQYATCRLCGRQVSNGPG [R21N] | 2.88
RAGHHPNQYATCRLCGRQVSFGPG [R21F] | 1.78
RAGHHPNQYATCRLCGRQVSLGPG [R21L] | 2.03
RAGHHPNQYATCRLCGRQVSHGPG [R21H] | 2.04
RAGHHPNQYATCRLCGRQVSQGPG [R21Q] | 2.25
RAGHHPNQYATCRLCGRQVSRGTG [P23T] | 2.2
RAGHHPNQYATCRLCGRQVSRGSG [P23S] | 2.05
RAGHHPNQYATCRLCGRQVSRGMG [P23M] | 1.77
RAGHHPNQYATCRLCGRQVSRGIG [P23I] | 2.27
RAGHHPNQYATCRLCGRQVSRGRG [P23R] | 2.8

Variant | protein stability index
RAGHHPNQYATCRLCGRQVSRGCG [P23C] | 2.96
RAGHHPNQYATCRLCGRQVSRGYG [P23Y] | 1.54
RAGHHPNQYATCRLCGRQVSRGNG [P23N] | 1.88
RAGHHPNQYATCRLCGRQVSRGFG [P23F] | 1.54
RAGHHPNQYATCRLCGRQVSRGEG [P23E] | 1.76
RAGHHPNQYATCRLCGRQVSRGHG [P23H] | 2.54
RAGHHPNQYATCRLCGRQVSRGVG [P23V] | 1.84
RAGHHPNQYATCRLCGRQVSRGDG [P23D] | 2.85
RAGHHPNQYATCRLCGRQVSRGQG [P23Q] | 2.11
RAGHHPNQYATCRLCGRQNSRGPG [V19N] | 1.4
RAGHHPNQYATCRLCGRQHSRGPG [V19H] | 3.82
RAGHHPNQYATCRLCGRQGSRGPG [V19G] | 2.53
RAGHHPNQYATCRLCGRQYSRGPG [V19Y] | 2.24
RAGHHPNQYATCRLCGRQISRGPG [V19I] | 1.37
RAGHHPNQYATCRLCGRQTSRGPG [V19T] | 2.22
RAGHHPNQYATCRLCGRQFSRGPG [V19F] | 2.08
RAGHHPNQYATCRLCGRQPSRGPG [V19P] | 1.98
RAGHHPNQYATCRLCGRQESRGPG [V19E] | 1.7
RAGHHPNQYATCRLCGRQQSRGPG [V19Q] | 2.48
RAGHHPNQYATCRLCGRQKSRGPG [V19K] | 3.86
RAGHHPNQYATCRLCGRQMSRGPG [V19M] | 1.48
RAGHHPNQYATCRLCGRQSSRGPG [V19S] | 1.65
RAGHHPNQYATCRLCGRQCSRGPG [V19C] | 3.7

Reference: the supplement of paper PMC10567573
